Positions of bridges follow the written chain, without caps; N, C: chain ends. Non-standard residues stand in square brackets, D forms with d. 2Nal = N[C@@H](Cc1ccc2ccccc2c1)C(=O)O; Phg = N[C@H](C(=O)O)c1ccccc1; Tle = CC(C)(C)[C@H](N)C(=O)O; Nle = CCCC[C@H](N)C(=O)O; AMF = not defined here
B1: Compound 3 (peptide)
peptide: {CH2CO}-FISGRNWVKWVC-NH2
modifications: thioether N-12
SMILES: CC[C@H](C)[C@@H]1NC(=O)[C@H](Cc2ccccc2)NC(=O)CSC[C@@H](C(N)=O)NC(=O)[C@H](C(C)C)NC(=O)[C@H](Cc2c[nH]c3ccccc23)NC(=O)[C@H](CCCCN)NC(=O)[C@H](C(C)C)NC(=O)[C@H](Cc2c[nH]c3ccccc23)NC(=O)[C@H](CC(N)=O)NC(=O)[C@H](CCCNC(=N)N)NC(=O)CNC(=O)[C@H](CO)NC1=O
B2: Compound 5 (peptide)
peptide: {CH2CO}-FISGRNWVRWRC-NH2
modifications: thioether N-12
SMILES: CC[C@H](C)[C@@H]1NC(=O)[C@H](Cc2ccccc2)NC(=O)CSC[C@@H](C(N)=O)NC(=O)[C@H](CCCNC(=N)N)NC(=O)[C@H](Cc2c[nH]c3ccccc23)NC(=O)[C@H](CCCNC(=N)N)NC(=O)[C@H](C(C)C)NC(=O)[C@H](Cc2c[nH]c3ccccc23)NC(=O)[C@H](CC(N)=O)NC(=O)[C@H](CCCNC(=N)N)NC(=O)CNC(=O)[C@H](CO)NC1=O
B3: Compound 4 (peptide)
peptide: {CH2CO}-FISGRNWVRWVC-NH2
modifications: thioether N-12
SMILES: CC[C@H](C)[C@@H]1NC(=O)[C@H](Cc2ccccc2)NC(=O)CSC[C@@H](C(N)=O)NC(=O)[C@H](C(C)C)NC(=O)[C@H](Cc2c[nH]c3ccccc23)NC(=O)[C@H](CCCNC(=N)N)NC(=O)[C@H](C(C)C)NC(=O)[C@H](Cc2c[nH]c3ccccc23)NC(=O)[C@H](CC(N)=O)NC(=O)[C@H](CCCNC(=N)N)NC(=O)CNC(=O)[C@H](CO)NC1=O
B4: Compound 11 (peptide)
peptide: {CH2CO}-WISGRNWVRWVC-NH2
modifications: thioether N-12
SMILES: CC[C@H](C)[C@@H]1NC(=O)[C@H](Cc2c[nH]c3ccccc23)NC(=O)CSC[C@@H](C(N)=O)NC(=O)[C@H](C(C)C)NC(=O)[C@H](Cc2c[nH]c3ccccc23)NC(=O)[C@H](CCCNC(=N)N)NC(=O)[C@H](C(C)C)NC(=O)[C@H](Cc2c[nH]c3ccccc23)NC(=O)[C@H](CC(N)=O)NC(=O)[C@H](CCCNC(=N)N)NC(=O)CNC(=O)[C@H](CO)NC1=O
B5: Compound 9 (peptide)
peptide: {CH2CO}-WISGRNWVKWVC-NH2
modifications: thioether N-12
SMILES: CC[C@H](C)[C@@H]1NC(=O)[C@H](Cc2c[nH]c3ccccc23)NC(=O)CSC[C@@H](C(N)=O)NC(=O)[C@H](C(C)C)NC(=O)[C@H](Cc2c[nH]c3ccccc23)NC(=O)[C@H](CCCCN)NC(=O)[C@H](C(C)C)NC(=O)[C@H](Cc2c[nH]c3ccccc23)NC(=O)[C@H](CC(N)=O)NC(=O)[C@H](CCCNC(=N)N)NC(=O)CNC(=O)[C@H](CO)NC1=O
B6: Compound 7 (peptide)
peptide: {CH2CO}-FISGKNWVKWVC-NH2
modifications: thioether N-12
SMILES: CC[C@H](C)[C@@H]1NC(=O)[C@H](Cc2ccccc2)NC(=O)CSC[C@@H](C(N)=O)NC(=O)[C@H](C(C)C)NC(=O)[C@H](Cc2c[nH]c3ccccc23)NC(=O)[C@H](CCCCN)NC(=O)[C@H](C(C)C)NC(=O)[C@H](Cc2c[nH]c3ccccc23)NC(=O)[C@H](CC(N)=O)NC(=O)[C@H](CCCCN)NC(=O)CNC(=O)[C@H](CO)NC1=O
B7: Compound 2 (peptide)
peptide: {CH2CO}-FRSGRNWVVWVC-NH2
modifications: thioether N-12
SMILES: CC(C)[C@@H]1NC(=O)[C@H](Cc2c[nH]c3ccccc23)NC(=O)[C@H](C(C)C)NC(=O)[C@H](C(C)C)NC(=O)[C@H](Cc2c[nH]c3ccccc23)NC(=O)[C@H](CC(N)=O)NC(=O)[C@H](CCCNC(=N)N)NC(=O)CNC(=O)[C@H](CO)NC(=O)[C@H](CCCNC(=N)N)NC(=O)[C@H](Cc2ccccc2)NC(=O)CSC[C@@H](C(N)=O)NC1=O
B8: Compound 10 (peptide)
peptide: {CH2CO}-FISGKNWVRWVC-NH2
modifications: thioether N-12
SMILES: CC[C@H](C)[C@@H]1NC(=O)[C@H](Cc2ccccc2)NC(=O)CSC[C@@H](C(N)=O)NC(=O)[C@H](C(C)C)NC(=O)[C@H](Cc2c[nH]c3ccccc23)NC(=O)[C@H](CCCNC(=N)N)NC(=O)[C@H](C(C)C)NC(=O)[C@H](Cc2c[nH]c3ccccc23)NC(=O)[C@H](CC(N)=O)NC(=O)[C@H](CCCCN)NC(=O)CNC(=O)[C@H](CO)NC1=O
B9: Compound 6 (peptide)
peptide: {CH2CO}-FRSGRNWVKWVC-NH2
modifications: thioether N-12
SMILES: CC(C)[C@@H]1NC(=O)[C@H](Cc2c[nH]c3ccccc23)NC(=O)[C@H](CCCCN)NC(=O)[C@H](C(C)C)NC(=O)[C@H](Cc2c[nH]c3ccccc23)NC(=O)[C@H](CC(N)=O)NC(=O)[C@H](CCCNC(=N)N)NC(=O)CNC(=O)[C@H](CO)NC(=O)[C@H](CCCNC(=N)N)NC(=O)[C@H](Cc2ccccc2)NC(=O)CSC[C@@H](C(N)=O)NC1=O
B10: Compound 1 (peptide)
peptide: {CH2CO}-FISGRNWVVWVC-NH2
modifications: thioether N-12
SMILES: CC[C@H](C)[C@@H]1NC(=O)[C@H](Cc2ccccc2)NC(=O)CSC[C@@H](C(N)=O)NC(=O)[C@H](C(C)C)NC(=O)[C@H](Cc2c[nH]c3ccccc23)NC(=O)[C@H](C(C)C)NC(=O)[C@H](C(C)C)NC(=O)[C@H](Cc2c[nH]c3ccccc23)NC(=O)[C@H](CC(N)=O)NC(=O)[C@H](CCCNC(=N)N)NC(=O)CNC(=O)[C@H](CO)NC1=O
B11: Compound 49 (peptide)
peptide: {CH2CO}-[2Nal][Phg]SGRNWVKWVC-NH2
modifications: thioether N-12
SMILES: CC(C)[C@@H]1NC(=O)[C@H](Cc2c[nH]c3ccccc23)NC(=O)[C@H](CCCCN)NC(=O)[C@H](C(C)C)NC(=O)[C@H](Cc2c[nH]c3ccccc23)NC(=O)[C@H](CC(N)=O)NC(=O)[C@H](CCCNC(=N)N)NC(=O)CNC(=O)[C@H](CO)NC(=O)[C@H](c2ccccc2)NC(=O)[C@H](Cc2ccc3ccccc3c2)NC(=O)CSC[C@@H](C(N)=O)NC1=O
B12: Compound 46 (peptide)
peptide: {CH2CO}-FISGRNWV[3MH]WVC-NH2
modifications: thioether N-12
B13: Compound 48 (peptide)
peptide: {CH2CO}-[2Nal][Nle]SGRNWVKWVC-NH2
modifications: thioether N-12
SMILES: CCCC[C@@H]1NC(=O)[C@H](Cc2ccc3ccccc3c2)NC(=O)CSC[C@@H](C(N)=O)NC(=O)[C@H](C(C)C)NC(=O)[C@H](Cc2c[nH]c3ccccc23)NC(=O)[C@H](CCCCN)NC(=O)[C@H](C(C)C)NC(=O)[C@H](Cc2c[nH]c3ccccc23)NC(=O)[C@H](CC(N)=O)NC(=O)[C@H](CCCNC(=N)N)NC(=O)CNC(=O)[C@H](CO)NC1=O
B14: Compound 47 (peptide)
peptide: {CH2CO}-FISGRNWV[AMF]WVC-NH2
modifications: thioether N-12; reading uncertain
B15: Compound 50 (peptide)
peptide: {CH2CO}-[2Nal][Tle]SGRNWVKWVC-NH2
modifications: thioether N-12
SMILES: CC(C)[C@@H]1NC(=O)[C@H](Cc2c[nH]c3ccccc23)NC(=O)[C@H](CCCCN)NC(=O)[C@H](C(C)C)NC(=O)[C@H](Cc2c[nH]c3ccccc23)NC(=O)[C@H](CC(N)=O)NC(=O)[C@H](CCCNC(=N)N)NC(=O)CNC(=O)[C@H](CO)NC(=O)[C@H](C(C)(C)C)NC(=O)[C@H](Cc2ccc3ccccc3c2)NC(=O)CSC[C@@H](C(N)=O)NC1=O
B16: Compound 39 (peptide)
peptide: {CH2CO}-[2Nal]ISGRNW[Nle]KWFC-NH2
modifications: thioether N-12
SMILES: CCCC[C@@H]1NC(=O)[C@H](Cc2c[nH]c3ccccc23)NC(=O)[C@H](CC(N)=O)NC(=O)[C@H](CCCNC(=N)N)NC(=O)CNC(=O)[C@H](CO)NC(=O)[C@H]([C@@H](C)CC)NC(=O)[C@H](Cc2ccc3ccccc3c2)NC(=O)CSC[C@@H](C(N)=O)NC(=O)[C@H](Cc2ccccc2)NC(=O)[C@H](Cc2c[nH]c3ccccc23)NC(=O)[C@H](CCCCN)NC1=O

Biological target: T1, Thrombospondin human platelet (Calbiochem, 605225) (human, UniProt P07996 19-1170)
Experiment: cell-based or functional assay

T1 sequence (P07996 19-1170 limits assumed): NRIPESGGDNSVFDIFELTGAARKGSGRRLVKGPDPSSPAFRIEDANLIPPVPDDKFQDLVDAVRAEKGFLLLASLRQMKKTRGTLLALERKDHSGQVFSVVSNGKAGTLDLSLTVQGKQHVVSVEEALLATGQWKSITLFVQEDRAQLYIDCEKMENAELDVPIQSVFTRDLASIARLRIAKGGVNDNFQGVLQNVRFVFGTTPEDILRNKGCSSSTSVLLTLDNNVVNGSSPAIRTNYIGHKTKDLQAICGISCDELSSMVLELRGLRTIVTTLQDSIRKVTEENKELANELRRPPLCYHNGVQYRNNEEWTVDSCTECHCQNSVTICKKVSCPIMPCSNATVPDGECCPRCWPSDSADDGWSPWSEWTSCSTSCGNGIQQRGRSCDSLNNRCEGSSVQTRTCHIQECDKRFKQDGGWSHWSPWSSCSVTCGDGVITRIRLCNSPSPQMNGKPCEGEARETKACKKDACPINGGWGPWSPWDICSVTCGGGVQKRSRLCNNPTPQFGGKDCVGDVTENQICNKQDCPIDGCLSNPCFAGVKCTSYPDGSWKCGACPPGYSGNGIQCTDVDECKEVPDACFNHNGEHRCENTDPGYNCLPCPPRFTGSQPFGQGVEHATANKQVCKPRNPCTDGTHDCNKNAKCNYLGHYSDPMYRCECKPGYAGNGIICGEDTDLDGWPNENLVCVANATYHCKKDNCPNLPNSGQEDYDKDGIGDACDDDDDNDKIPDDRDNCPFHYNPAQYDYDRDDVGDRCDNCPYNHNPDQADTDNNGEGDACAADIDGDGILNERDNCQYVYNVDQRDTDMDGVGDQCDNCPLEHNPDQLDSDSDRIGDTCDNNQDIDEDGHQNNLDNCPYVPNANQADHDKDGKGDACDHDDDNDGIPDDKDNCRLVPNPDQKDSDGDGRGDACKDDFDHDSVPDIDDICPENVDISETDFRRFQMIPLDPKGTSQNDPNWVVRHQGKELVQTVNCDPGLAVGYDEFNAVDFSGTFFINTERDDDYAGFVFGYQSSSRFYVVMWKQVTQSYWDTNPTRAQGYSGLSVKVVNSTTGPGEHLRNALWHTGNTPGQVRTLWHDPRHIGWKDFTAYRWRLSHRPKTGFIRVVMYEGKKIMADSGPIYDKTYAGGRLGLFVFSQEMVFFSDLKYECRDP

First: B1
Second: B2
The “Cell adhesion IC50” value of the first is 1.6-fold lower: 20.8 nM for the first, 33.4 nM for the second.

Going from B3 to B4, the “Cell adhesion IC50” value rises from 11.2 nM to 26.3 nM (2.3-fold).

B5 and B6 are within 1.5-fold of each other in “Cell adhesion IC50” value: 27.3 nM for the first, 20.6 nM for the second.

Going from B7 to B8, the “Cell adhesion IC50” value falls from 25.5 nM to 10.9 nM (2.3-fold).

B9 and B10 are within 1.5-fold of each other in “Cell adhesion IC50” value: 27.3 nM for the first, 34.9 nM for the second.

Biological target: T1, Thrombospondin human platelet …
Experiment: cell-based or functional assay
Remark: another data set of the same source

Going from B11 to B12, the “Cell adhesion IC50” value rises from 11.5 nM to 30.3 nM (2.6-fold).

First: B13
Second: B14
The “Cell adhesion IC50” value of the first is 1.6-fold lower: 10.4 nM for the first, 16.7 nM for the second.

B15 and B16 are within 1.5-fold of each other in “Cell adhesion IC50” value: 11.6 nM for the first, 16.3 nM for the second.

Biological target: Recombinant-hTSP1 (human, UniProt P07996 19-1170, limits assumed)
Experiment: SPR (Biacore T200), single-cycle kinetics, recombinant hTSP1 immobilised on NTA chip
Experimental: First, 500 μM NiCl₂ was injected over an NTA-Chip (produced by GE Healthcare, BR100532) at a flow rate of 5 μL/min. for 1 minute to thereby activate NTA groups. Then, an EDC/NHS mixture was injected at a flow rate of 10 μL/min. for 7 minutes to thereby activate the carboxyl groups of dextran. Recombinant-hTSP1 was injected at a flow rate of 10 μL/min. for 7 minutes to immobilize the TSP1 on the substrate surfaces with activated NTA and carboxyl groups. Ethanolamine was injected at a flow rate of 10 μL/min. for 7 minutes to thereby deactivate unreacted, activated carboxyl groups.
Since Biacore T200 is highly responsive to change in DMSO concentrations, DMSO solutions were sequentially injected at concentrations of 4%, 4.4%, 4.8%, 5.2%, 5.6%, and 6% to correct for DMSO effects.
The analysis was conducted using the evaluation software provided with Biacore T100 and T200. A DMSO correction curve obtained by solvent correction measurements was applied for the analysis. Kinetics fitting was done on the difference data obtained by subtracting the baseline data from sample measurement data.

Chain of Recombinant-hTSP1 (P07996 19-1170 limits assumed): as above

Compared with B1, B2 is 3.6-fold higher in Kd: 0.25 nM for the first, 0.9 nM for the second. The first binds more tightly here.

Going from B3 to B4, the Kd falls from 0.26 nM to 0.14 nM (1.9-fold).

Going from B5 to B6, the Kd falls from 0.23 nM to 0.12 nM (1.9-fold). The second binds more tightly here.

First: B7
Second: B8
The Kd of the first is 1.6-fold higher: 0.15 nM for the first, 0.091 nM for the second. The second binds more tightly here.

B9 and B10 are within 1.5-fold of each other in Kd: 0.44 nM for the first, 0.51 nM for the second.

Source: patent publication US20200131230A1 (published 2020)
